# Reference: the nanobody polyreactivity screen of Harvey et al. (2022)
# Test: yeast display, Sf9 membrane polyspecificity reagent, FACS + sequencing; frameworks hold sequencing errors
# Outline: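 Using colony PCR, genes from sorted yeast display clones were amplified, then sequenced on MiSeq at 2 × 250 and filtered by CDR length. The clones had been stained with 10% biotinylated, detergent-solubilized Sf9 membrane reagent for 1 hour at 4 °C and sorted by FACS into low and high (top ~1%) gates on anti-HA and streptavidin fluorescence. Polyreactivity labels come from the gate of origin.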
row,Sequence,polyreactivity (PSR sort gate)
1,QVQLVESGGGLVQAGGSLRLSCAASGFIFFTNTMGWYRQAPGKEWELVAAINSNGGRTYYADSVKGRFTISRDNAKNTVYLQMNSLKPEDTAVYYCAARSVGGVARLDYWGQGTQVTVSS,low polyreactivity
2,QVQLVESGGGLVQAGGSLRLSCAASGFIFFTYAMGWYRQAPGKERELVAAISSRGGSTYYADSVKGRFTISRDNAKNTVYLQMNSLKPEDTAVYYCADRTRRRRGEYDYWGQGTQVTVSS,high polyreactivity
3,QVQLVESGGGLVQAGGSLRLSCAASGFIFGANAMGWYRQAPGKERELVAAITWSAGRTYYADSVKGRFTISRDNAKNNVYLQMNSLKPEDTAVYYCAKQRARQSPEVGYWGQGTQVTVSS,high polyreactivity
4,QVQLVESGGGLVQAGGSLRLSCAASGFIFGDNAMGWYRQAPGKERELVAAINSGSRTSYADSVKGRFTISRDNAKNTVYLQMNSLKPEDTAVYYCAAESVSSGDNASRYDYWGQGTQVTVSS,low polyreactivity
5,QVQLVESGGGLVQAGGSLRLSCAASGFIFGDNAMGWYRQAPGKERELVAGITVSDGSTYYADSVKGRFTISRDNAKNTVYLQMNSLKPEDTAVYYCNAAGRYKPGAPYDYWGQGTQVTVSS,low polyreactivity
6,QVQLVESGGGLVQAGGSLRLSCAASGFIFGDYAMGWYRQAPGKEGELVAAIRGSDSTTYYADSVKGRFTISRDNAKNTVYLQMNSLKPEDTAVYYCAAVGVVPLKKSARVYYWGQGTQVTVSS,low polyreactivity
7,QVQLVESGGGLVQAGGSLRLSCAASGFIFGDYAMGWYRQAPGKERELVAAIRGSDSTTYYADSVKGRFTISRDNAKNTVYLQMNSLKPEDTAVYYCAAVGVVPRKKSARVYYWGQGTQVTVSS,low polyreactivity
8,QVQLVESGGGLVQAGGSLRLSCAASGFIFGEYTMGWYRQAPGKEREFVAAISWSGGSTSYADSVKGRFTISRDNAKNTVYLQMNSLKPEDTAVYYCAARYGSDYDYWGQGTQVTVSS,low polyreactivity
9,QVQLVESGGGLVQAGGSLRLSCAASGFIFGGFTMGWSRQAPGNERELVAAISRSGGSTYYADSVKGRFTISRDNAKNTVYLQMNSLKPEDTAVYYCATLNYYGEVEYWGQGTQVTVSS,high polyreactivity
10,QVQLVESGGGLVQAGGSLRLSCAASGFIFGGYAMGWYRHAPRKERELVAAISRSGGSTYYADSVKGRFTISRDNAKNTVYLQMNSLKPEDTAVYYCNAVPRRQGFNYWGQGTQVSVSS,high polyreactivity
11,QVQLVESGGGLVQAGGSLRLSCAASGFIFGGYAMGWYRQAPGKERELVAAISWSGDNTYYADSVKGRFTISRDNAKNTVYLQMNSLKPEDTAVYYCAADSYGQEYDYWGQGTQVTVSS,low polyreactivity
12,QVQLVESGGGLVQAGGSLRLSCAASGFIFGGYVMGWYRQAPGKERELVAAITWSGGSTYYADSVKGRFTISRDNAKHTVYVQLNSQKREDTAVYYCNSRVPARLWRWSPYPVDYWGQGTQVTLSS,high polyreactivity
13,QVQLVESGGGLVQAGGSLRLSCAASGFIFGIYDMGWYRQAPGKERELVAAITYSGSSTYYADSVKGRFTISRDNAKNTVYLQMNSLKQEDTAVYYCNKTPWDWDYWDPEYYYWGQGTQVTVSS,high polyreactivity
14,QVQLVESGGGLVQAGGSLRLSCAASGFIFGKYAMGWYRQAPGKERELVAAITSDGRTYYADSVKGRFTISRDNAKNTVYLQMNSLKPEDTAVYYSAATRYGHRYYYRPYEYWGQGSQVTVSS,high polyreactivity
15,QVQLVESGGGLVQAGGSLRLSCAASGFIFGLYAIGWYRQAPGKERELVAAISRSGGSTYYADSVKGRFTISRDNAKNTVYLQMNSLKPEDTAVYYCNARYSWPRATWYDYWGQGTQVTVSS,high polyreactivity
16,QVQLVESGGGLVQAGGSLRLSCAASGFIFGNNDMGWYRPAPGKERELVAAISNSGGRTYYADSVKGRFTISRDNAKNTVYLQMNSLKPEDTAVYYCAKAYRPPGYDSWGQGTQVTVSS,high polyreactivity
17,QVQLVESGGGLVQAGGSLRLSCAASGFIFGNNDRGWYRQAPGKERELVAGITWSGSSTYYADSVKGRFTISRDNAKNTVYLQMNSLKPEDTAVYYCIRVFTWRYGYRYEYWGQGTQVTVSS,high polyreactivity
18,QVQLVESGGGLVQAGGSLRLSCAASGFIFGPYAMGWYRTAPGKERELVAAITYSSGSTYYADSVKGRFTISRDNAKNTVYLQMNSLKPEDTAVYYCNAEFWYETLYEYDYWGQGTQVTVSS,high polyreactivity
19,QVQLVESGGGLVQAGGSLRLSCAASGFIFGQYAMGWYRQAPGKERELVAAISRSGGSTYYADSVKGRFTISRDNAKNTVYLQMNSLKPEDTAVYYCNRRARGDSYRLDYWGQGTQVTVSS,high polyreactivity
20,QVQLVESGGGLVQAGGSLRLSCAASGFIFGRYAMGWYRQAPGKERELVAAITASGGRTYYADSVKGRFTISRDNAKNTVYLQMNSLKPEDTAVYYCNTPSLWCGEDYWGQGTQVTVSS,high polyreactivity
21,QVQLVESGGGLVQAGGSLRLSCAASGFIFGRYAMGWYRQAPGKERELVAGISSRGGRTYYADSVKGRFTISRDTAKNPVFLQINSLKPEDTAVYYCGAAGLTDYVRYDYWGQGTQVTVSS,high polyreactivity

row,Sequence,polyreactivity (PSR sort gate)
1,QVQLVESGGGLVQAGGSLRLSCAASGFIFGRYAMVWYRQAPGKERHFVASISWSGGSTHYADSVKGRFTISREKAKNTVYLHMNSLKPVDTAVYYCARGFPPYRVTHMNYWGQGTLVTVSS,high polyreactivity
2,QVQLVESGGGLVQAGGSLRLSCAASGFIFGRYTMGWYRQAPWKERELVAAISGSGGRTYYADSVKGRFTISRDNAKNTVYLQMNSLKPEDTSVYYCATYGYFYYDYWGQGTQVTVSS,high polyreactivity
3,QVQLVESGGGLVQAGGSLRLSCAASGFIFGRYTMGWYRQATGKERELVAAISGSDVTTYYADSVKGRFTISRDNAKNTVYLQMNSLKPEDTAVYYCAADSPWAYYEYDYWGQGTHVTVSS,low polyreactivity
4,QVQLVESGGGLVQAGGSLRLSCAASGFIFGSNAMGWYRQAPGKERELVAAISRSGGSTYYADSVKGRFTISRDNAKNTVYLQMNSLKPEHTAVYYCASYLYKSRYLPEYDYWGQGTQVTVSS,high polyreactivity
5,QVQLVESGGGLVQAGGSLRLSCAASGFIFGSYTMGWYRQAPGKERELVAAITTGGSTNYADSVKGRFTISRDNAKNTVYLQMNSLKPEDTAVYYCAARTVGFYRYDYWGQGTQVTVSS,low polyreactivity
6,QVQLVESGGGLVQAGGSLRLSCAASGFIFGTNAMGWYRQAPGKERELVAAISIGDSTYYADSVKGRFTISRDNAKNTVYVQKNSLKPEDTAVYYCNARAYSIYLLQKTYAFNYWGQGTQVTVSS,low polyreactivity
7,QVQLVESGGGLVQAGGSLRLSCAASGFIFGTYAMGWYRQAPGKERELVAAISVGGGSTYYADSVKGRFTISRDNAKNSVYLQMNSLKPEDTAVYYCNALYNDHFSWFSFGYWGQGTQVTVSS,low polyreactivity
8,QVQLVESGGGLVQAGGSLRLSCAASGFIFGTYAMGWYRQAPGKERELVAAISVGGGSTYYADSVKGRFTISRDNAKNTVYLQMNSLKPEDTAVYYCAAVQLYQKHQITYVAHEYWGQGTQVTVSS,low polyreactivity
9,QVQLVESGGGLVQAGGSLRLSCAASGFIFGTYVMGWYRQAPGKERELVAAISESGGRTYYADSVKGRFTISRDNAKNTVYLQMNSLKPEDTAVYYCAKVRHIRFHYYYGYQSYYYWGQGTQVTVSS,high polyreactivity
10,QVQLVESGGGLVQAGGSLRLSCAASGFIFGWYAMGWYRQAPGKERELVAVIRSGGRTNYADSVKGRFTISRDNAKNTVYLQMNSLKPEDTAVYDCNAVGGRGYGGGFWGQGTQVTVSS,high polyreactivity
11,QVQLVESGGGLVQAGGSLRLSCAASGFIFGYNAMGWYRQAPGKERELVAAIRAGDGSTYYADSVKGRFTISRDNAKNTVYLQMNSLKPEDTAVYYCAAAWRQSGYRYGYWGQGTQVTVSS,high polyreactivity
12,QVQLVESGGGLVQAGGSLRLSCAASGFIFGYNAMGWYRQAPGKERELVAAITWIGGTTYYADSVKGRFTISRDNAKNTVYLQMNSLKPEDTAVYYCARQRSYGRSSYSYGYDYWGQGTQVTVSS,high polyreactivity
13,QVQLVESGGGLVQAGGSLRLSCAASGFIFGYNAMGWYRQEPGKERELVARIRYRGARTYYADSVKGRFTISRDNAKNTVYLQMNSLKPEDTAVYYCAAVASWPGGYDYWGQGTQVTVSS,high polyreactivity
14,QVQLVESGGGLVQAGGSLRLSCAASGFIFGYNGMGWYRQAPGKERELVAGITYSDGSTYYADSVKGRFTISRDNAKNTVYLQMNSLKPEDTAVYYCAVDVIYYWAEDYDYWGQGTQVTVSS,low polyreactivity
15,QVQLVESGGGLVQAGGSLRLSCAASGFIFGYNTMGWYRQAPGKERELVAAISWSGGSTYYADSVKGRFTISRVNAKNSVYLQMNSLKPEDTAVYYCATVSRSYSELDYWGQGTQVTVSS,low polyreactivity
16,QVQLVESGGGLVQAGGSLRLSCAASGFIFGYYAMGWDRQAPGKERELVAAITSDGNTDYSDSVKGRFTISRDNAKNTVYLQMNSLKPEDTAVYYCATDWVDHYDYWGQGTQVTVSS,low polyreactivity
17,QVQLVESGGGLVQAGGSLRLSCAASGFIFGYYAMGWYRHAPGKERELVAAISYSGGSTYYADSVKGRFTISRDNAKNTVYLQMYSLKPEDTAVYYCAKYGQSNYDWGQGTQVTLSS,high polyreactivity
18,QVQLVESGGGLVQAGGSLRLSCAASGFIFGYYAMGWYRPAPGNERELVAAIDWSDGSTYYADSVKGRFTISRDNAKNTVYLQMNSLKPEDTAVYYSAVDTYSQQAGDYEYWGQGTQVTVSS,low polyreactivity
19,QVQLVESGGGLVQAGGSLRLSCAASGFIFGYYAMGWYRQAPGKERELVAAISRSGGRTYYADSVKGRFTISRDNAKNTVYLQMNSLKPEDTAVYYCAKGSNRSRGYYWGQGTQVTVSS,high polyreactivity
20,QVQLVESGGGLVQAGGSLRLSCAASGFIFGYYAMGWYRQAPGKERELVAAISSGGTTTYYADSVKGRFTISRDNAKNTVYLQMNSLKPEDTAVYYCAKVSQRRVDNSDYDYWGQGTQVTVSS,high polyreactivity
